# Biological target: RSV F protein on respiratory syncytial virus (RSV-Long strain) (respiratory syncytial virus (Long strain)) (UniProt P12568)
# Test: cell-based or functional assay
# Chain of RSV F protein on respiratory syncytial virus (RSV-Long strain) (respiratory syncytial virus (Long strain)) (P12568 26-574): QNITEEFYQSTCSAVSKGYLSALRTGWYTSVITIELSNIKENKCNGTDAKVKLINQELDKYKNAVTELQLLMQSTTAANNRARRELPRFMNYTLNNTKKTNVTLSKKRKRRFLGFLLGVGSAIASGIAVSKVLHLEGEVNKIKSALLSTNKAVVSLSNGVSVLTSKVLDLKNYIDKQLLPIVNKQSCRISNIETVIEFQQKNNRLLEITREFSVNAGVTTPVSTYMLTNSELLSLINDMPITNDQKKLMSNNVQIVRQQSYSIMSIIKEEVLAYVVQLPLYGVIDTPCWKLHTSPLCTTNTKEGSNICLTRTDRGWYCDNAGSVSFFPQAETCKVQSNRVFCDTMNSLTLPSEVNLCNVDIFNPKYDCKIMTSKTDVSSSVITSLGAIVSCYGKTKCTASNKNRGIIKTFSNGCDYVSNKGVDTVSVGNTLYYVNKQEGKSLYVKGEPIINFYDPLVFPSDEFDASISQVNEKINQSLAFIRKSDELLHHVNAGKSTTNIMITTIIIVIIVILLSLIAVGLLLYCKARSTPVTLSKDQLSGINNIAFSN
Binder,Fold Difference (Control IC50),Fold Difference (Curve IC50),"Mean IC50 (Control), RSV microneutralization","Mean IC50 (Curve), RSV microneutralization"
"A17d4(1) monoclonal antibody (antibody, V domains shown) VH: QVTLRESGPALVKPTQTLTLTCTFSGFSLSTAGMSVGWIRQPPGKALEWLADIWWDGKKSYNPSLKDRLTISKDTSKNQVVLKVTNMDPADTATYYCARDMIFNFYFDVWGQGTTVTVSS VL: DIQMTQSPSTLSASVGDRVTITCLPSSRVGYMHWYQQKPGKAPKLLIYDTMYQSSGVPSRFSGSGSGTEFTLTISSLQPDDFATYYCFQGSGYPFTFGGGTKVEIK",15 fold,13 fold,0.0354 µg/mL,0.0342 µg/mL
"A4B4 monoclonal antibody (antibody, V domains shown) VH: QVTLRESGPALVKPTQTLTLTCTFSGFSLSTAGMSVGWIRQPPGKALEWLADIWWDDKKHYNPSLKDRLTISKDTSKNQVVLKVTNMDPADTATYYCARDMIFNFYFDVWGQGTTVTVSS VL: DIQMTQSPSTLSASVGDRVTITCSASSRVGYMHWYQQKPGKAPKLLIYDTFFLDSGVPSRFSGSGSGTEFTLTISSLQPDDFATYYCFQGSGYPFTFGGGTKVEIK",35 fold,27 fold,0.0154 µg/mL,0.0171 µg/mL
"A17d4(1) Fab fragment (Fab, V domains shown) VH: QVTLRESGPALVKPTQTLTLTCTFSGFSLSTAGMSVGWIRQPPGKALEWLADIWWDGKKSYNPSLKDRLTISKDTSKNQVVLKVTNMDPADTATYYCARDMIFNFYFDVWGQGTTVTVSS VL: DIQMTQSPSTLSASVGDRVTITCLPSSRVGYMHWYQQKPGKAPKLLIYDTMYQSSGVPSRFSGSGSGTEFTLTISSLQPDDFATYYCFQGSGYPFTFGGGTKVEIK",31 fold,25 fold,0.0171 µg/mL,0.0179 µg/mL
"A13c4 monoclonal antibody (antibody, V domains shown) VH: QVTLRESGPALVKPTQTLTLTCTFSGFSLSTAGMSVGWIRQPPGKALEWLADIWWDGKKSYNPSLKDRLTISKDTSKNQVVLKVTNMDPADTATYYCARDMIFNFYFDVWGQGTTVTVSS VL: DIQMTQSPSTLSASVGDRVTITCSLSSRVGYMHWYQQKPGKAPKLLIYDTMYQSSGVPSRFSGSGSGTEFTLTISSLQPDDFATYYCFQGSGYPFTFGGGTKVEIK",14 fold,12 fold,0.0375 µg/mL,0.0376 µg/mL
"P11d4 Fab fragment (Fab, V domains shown) VH: QVTLRESGPALVKPTQTLTLTCTFSGFSLSTPGMSVGWIRQPPGKALEWLADIWWDGKKHYNPSLKDRLTISKDTSKNQVVLKVTNMDPADTATYYCARDMIFNWYFDVWGQGTTVTVSS VL: DIQMTQSPSTLSASVGDRVTITCSPSSRVGYMHWYQQKPGKAPKLLIYDTMRLASGVPSRFSGSGSGTEFTLTISSLQPDDFATYYCFQGSGYPFTFGGGTKVEIK",,,> 1 µg/mL,> 1 µg/mL
"A12a6 monoclonal antibody (antibody, V domains shown) VH: QVTLRESGPALVKPTQTLTLTCTFSGFSLSTAGMSVGWIRQPPGKALEWLADIWWDGKKDYNPSLKDRLTISKDTSKNQVVLKVTNMDPADTATYYCARDMIFNFYFDVWGQGTTVTVSS VL: DIQMTQSPSTLSASVGDRVTITCSASSRVGYMHWYQQKPGKAPKLLIYDTFKLSSGVPSRFSGSGSGTEFTLTISSLQPDDFATYYCFQGSGYPFTFGGGTKVEIK",15 fold,13 fold,0.0354 µg/mL,0.0357 µg/mL
"A8c7 monoclonal antibody (antibody, V domains shown) VH: QVTLRESGPALVKPTQTLTLTCTFSGFSLSTAGMSVGWIRQPPGKALEWLADIWWDDKKSYNPSLKDRLTISKDTSKNQVVLKVTNMDPADTATYYCARDMIFNWYFDVWGQGTTVTVSS VL: DIQMTQSPSTLSASVGDRVTITCSPSSRVGYMHWYQQKPGKAPKLLIYDTRYQSSGVPSRFSGSGSGTEFTLTISSLQPDDFATYYCFQGSGYPFTFGGGTKVEIK",14 fold,13 fold,0.0383 µg/mL,0.0337 µg/mL
"P11d4 monoclonal antibody (antibody, V domains shown) VH: QVTLRESGPALVKPTQTLTLTCTFSGFSLSTPGMSVGWIRQPPGKALEWLADIWWDGKKHYNPSLKDRLTISKDTSKNQVVLKVTNMDPADTATYYCARDMIFNWYFDVWGQGTTVTVSS VL: DIQMTQSPSTLSASVGDRVTITCSPSSRVGYMHWYQQKPGKAPKLLIYDTMRLASGVPSRFSGSGSGTEFTLTISSLQPDDFATYYCFQGSGYPFTFGGGTKVEIK",19 fold,21 fold,0.0289 µg/mL,0.0217 µg/mL
"P12f2 Fab fragment (Fab, V domains shown) VH: QVTLRESGPALVKPTQTLTLTCTFSGFSLSTPGMSVGWIRQPPGKALEWLADIWWDDKKHYNPSLKDRLTISKDTSKNQVVLKVTNMDPADTATYYCARDMIFNFYFDVWGQGTTVTVSS VL: DIQMTQSPSTLSASVGDRVTITCSLSSRVGYMHWYQQKPGKAPKLLIYDTFYLSSGVPSRFSGSGSGTEFTLTISSLQPDDFATYYCFQGSGYPFTFGGGTKVEIK",16 fold,11 fold,0.0326 µg/mL,0.0407 µg/mL
"P12f4 monoclonal antibody (antibody, V domains shown) VH: QVTLRESGPALVKPTQTLTLTCTFSGFSLSTPGMSVGWIRQPPGKALEWLADIWWDGKKHYNPSLKDRLTISKDTSKNQVVLKVTNMDPADTATYYCARDMIFNFYFDVWGQGTTVTVSS VL: DIQMTQSPSTLSASVGDRVTITCSLSSRVGYMHWYQQKPGKAPKLLIYDTRGLPSGVPSRFSGSGSGTEFTLTISSLQPDDFATYYCFQGSGYPFTFGGGTKVEIK",23 fold,19 fold,0.0235 µg/mL,0.0242 µg/mL
"A12a6 Fab fragment (Fab, V domains shown) VH: QVTLRESGPALVKPTQTLTLTCTFSGFSLSTAGMSVGWIRQPPGKALEWLADIWWDGKKDYNPSLKDRLTISKDTSKNQVVLKVTNMDPADTATYYCARDMIFNFYFDVWGQGTTVTVSS VL: DIQMTQSPSTLSASVGDRVTITCSASSRVGYMHWYQQKPGKAPKLLIYDTFKLSSGVPSRFSGSGSGTEFTLTISSLQPDDFATYYCFQGSGYPFTFGGGTKVEIK",17 fold,16 fold,0.031 µg/mL,0.0287 µg/mL
"A1e9 Fab fragment (Fab, V domains shown) VH: QVTLRESGPALVKPTQTLTLTCTFSGFSLSTAGMSVGWIRQPPGKALEWLADIWWDGKKHYNPSLKDRLTISKDTSKNQVVLKVTNMDPADTATYYCARDMIFNWYFDVWGQGTTVTVSS VL: DIQMTQSPSTLSASVGDRVTITCSLSSRVGYMHWYQQKPGKAPKLLIYDTFKLSSGVPSRFSGSGSGTEFTLTISSLQPDDFATYYCFQGSGYPFTFGGGTKVEIK",4 fold,3 fold,0.125 µg/mL,0.157 µg/mL
"A1e9 monoclonal antibody (antibody, V domains shown) VH: QVTLRESGPALVKPTQTLTLTCTFSGFSLSTAGMSVGWIRQPPGKALEWLADIWWDGKKHYNPSLKDRLTISKDTSKNQVVLKVTNMDPADTATYYCARDMIFNWYFDVWGQGTTVTVSS VL: DIQMTQSPSTLSASVGDRVTITCSLSSRVGYMHWYQQKPGKAPKLLIYDTFKLSSGVPSRFSGSGSGTEFTLTISSLQPDDFATYYCFQGSGYPFTFGGGTKVEIK",8 fold,7 fold,0.0645 µg/mL,0.0625 µg/mL
"P12f4 Fab fragment (Fab, V domains shown) VH: QVTLRESGPALVKPTQTLTLTCTFSGFSLSTPGMSVGWIRQPPGKALEWLADIWWDGKKHYNPSLKDRLTISKDTSKNQVVLKVTNMDPADTATYYCARDMIFNFYFDVWGQGTTVTVSS VL: DIQMTQSPSTLSASVGDRVTITCSLSSRVGYMHWYQQKPGKAPKLLIYDTRGLPSGVPSRFSGSGSGTEFTLTISSLQPDDFATYYCFQGSGYPFTFGGGTKVEIK",15 fold,10 fold,0.0351 µg/mL,0.0464 µg/mL
"A13c4 Fab fragment (Fab, V domains shown) VH: QVTLRESGPALVKPTQTLTLTCTFSGFSLSTAGMSVGWIRQPPGKALEWLADIWWDGKKSYNPSLKDRLTISKDTSKNQVVLKVTNMDPADTATYYCARDMIFNFYFDVWGQGTTVTVSS VL: DIQMTQSPSTLSASVGDRVTITCSLSSRVGYMHWYQQKPGKAPKLLIYDTMYQSSGVPSRFSGSGSGTEFTLTISSLQPDDFATYYCFQGSGYPFTFGGGTKVEIK",21 fold,17 fold,0.0258 µg/mL,0.0264 µg/mL
"A8c7 Fab fragment (Fab, V domains shown) VH: QVTLRESGPALVKPTQTLTLTCTFSGFSLSTAGMSVGWIRQPPGKALEWLADIWWDDKKSYNPSLKDRLTISKDTSKNQVVLKVTNMDPADTATYYCARDMIFNWYFDVWGQGTTVTVSS VL: DIQMTQSPSTLSASVGDRVTITCSPSSRVGYMHWYQQKPGKAPKLLIYDTRYQSSGVPSRFSGSGSGTEFTLTISSLQPDDFATYYCFQGSGYPFTFGGGTKVEIK",34 fold,3 fold,0.157 µg/mL,0.177 µg/mL
"P12f2 monoclonal antibody (antibody, V domains shown) VH: QVTLRESGPALVKPTQTLTLTCTFSGFSLSTPGMSVGWIRQPPGKALEWLADIWWDDKKHYNPSLKDRLTISKDTSKNQVVLKVTNMDPADTATYYCARDMIFNFYFDVWGQGTTVTVSS VL: DIQMTQSPSTLSASVGDRVTITCSLSSRVGYMHWYQQKPGKAPKLLIYDTFYLSSGVPSRFSGSGSGTEFTLTISSLQPDDFATYYCFQGSGYPFTFGGGTKVEIK",24 fold,20 fold,0.0223 µg/mL,0.0231 µg/mL
